US20100298225A1, “PEPTIDE GAP JUNCTION MODULATORS” (priority 2007, published 2010)
“Also recorded” adds a separate entry of the source.

Legend:
[1] = target: T1, carboxyl terminal domain (CT) of Cx43 (Rattus norvegicus, UniProt P08050); experiment: Peptide binding to Cx43CT determined using surface plasmon resonance (SPR); conditions: for SPR respons: immobilised recombinant Cx43CT; for SPR data normalised on Mw: value = (SPRrespons*100)/Mw
T1 construct: GST (N, cleaved yes); made in house; host or cells: E. coli BL-21
T1 sequence (P08050 255-382): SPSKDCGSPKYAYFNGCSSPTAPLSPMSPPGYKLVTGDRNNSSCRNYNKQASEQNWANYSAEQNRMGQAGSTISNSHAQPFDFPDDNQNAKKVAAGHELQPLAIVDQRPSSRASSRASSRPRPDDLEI
Method: 277(39):36706-36714 (2002), which is hereby incorporated by reference in its entirety. Briefly, cDNA derived from rat Cx43 was inserted into pGEX-6P-2 (Amersham) and expressed in E. coli (BL-21). The resultant GST-fusion protein was cleaved from the GST PreScission Protease® (Amersham Biosciences). The recombinant product after cleavage contained the sequence 255-382 of rCx43 preceded by four additional amino acids (GPLG). Protein concentration was measured using the Bio-Rad DC Protein Assay. Protein purity was assessed by SDS-PAGE.
Recombinant Cx43CT was covalently bound to a carboxylmethyl dextran matrix (Salamon et al., “Surface Plasmon Resonance Spectroscopy as a Tool for Investigating the Biochemical and Biophysical Properties of Membrane Protein Systems. II: Applications to Biological Systems,” Biochim. Biophys. Acta 1331(2):131-152 (1997), which is hereby incorporated by reference in its entirety). Specific peptides were presented and, when feasible, dissociation constants (KD) were calculated from the time course of binding and unbinding of the ligand, using a 1:1 (Langmuir) association and dissociation kinetic model (Biacore software package). In both phases (association and dissociation), the first 5-8 seconds of recording were not included in the fit, to avoid artifacts resulting from peptide distribution within the flow cells (Lang et al., “Surface Plasmon Resonance as a Method to Study the Kinetics and Amplitude of Protein-protein Binding,” in PRACTICAL METHODS IN CARDIOVASCULAR RESEARCH 936-947 (Stefan Dhein, Friedrich Wilhelm Mohr & Mario Delmar eds., 2005), which is hereby incorporated by reference in its entirety).
The peptides shown in table 2 and 3 were tested for binding to the carboxyl terminal domain (CT) of Cx43 using Surface Plasmon Resonance (“SPR”). SPR is a method that was used to identify the original RXPE sequence (Shibayama et al., “Identification of a Novel Peptide that Interferes with the Chemical Regulation of Connexin-43,” Circ. Res. 98:1365-72 (2006)). The amplitude of the response is also a function of the mass of the ligate, and the normalized data according to the individual peptide Mw's are shown in table 3.

[2] = target: T2, Cx43-expressing N2a cells (Rattus norvegicus, UniProt P08050); experiment: Dual patch clamp: octanol-induced uncoupling, junctional conductance between cell pairs; type: cell-based; conditions: for Ability to re-open gap junctions closed by the uncoupler (revert uncoupled cells to coupled) / Effect on octanol-induced uncoupling: 0.1 mM peptide in internal pipette solution, octanol superfusion; for Effect on octanol-induced uncoupling: Vj 60 mV; for Average junctional conductance (Gj) as a function of time after onset of octanol: 0.1 mM peptide in pipette, Gj relative to value before octanol, N=7 pairs; for Decrease in Gj three minutes after onset of octanol: junctional current traces of a cell pair, peptide in internal pipette solution; for Cell pairs that remained coupled / uncoupled following onset of octanol superfusion: seven cell pairs, peptide in pipette, uncoupling = zero junctional current at 60-mV pulse
T2 construct: expressed in transfected cells; host or cells: N2a (neuroblastoma) cells
T2 sequence (P08050 whole entry, the tested form may be a part): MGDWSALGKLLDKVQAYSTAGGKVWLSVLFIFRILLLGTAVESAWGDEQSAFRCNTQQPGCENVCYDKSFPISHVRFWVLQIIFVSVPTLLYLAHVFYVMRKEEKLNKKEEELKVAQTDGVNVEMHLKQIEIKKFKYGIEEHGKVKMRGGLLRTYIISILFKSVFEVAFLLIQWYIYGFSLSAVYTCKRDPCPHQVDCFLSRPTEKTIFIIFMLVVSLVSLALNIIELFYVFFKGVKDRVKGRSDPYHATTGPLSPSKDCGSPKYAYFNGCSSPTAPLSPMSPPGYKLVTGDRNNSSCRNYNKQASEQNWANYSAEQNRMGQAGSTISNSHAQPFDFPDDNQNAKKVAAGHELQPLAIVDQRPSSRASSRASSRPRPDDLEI
Method: Experiments were conducted on N2a (Neuroblastoma) cells. Cx43 was expressed either in a lac-switch stable system (induced by 0.1-1.0 mM of IPTG (Zhong et al., “LacSwitch II Regulation of Connexin43 cDNA Expression Enables Gap-junction Single-channel Analysis,” Biotechniques 34(5):1034-1034, 1041-1044, 1046 (2003), which is hereby incorporated by reference in its entirety)) or transiently using an IRES plasmid coding for eGFP (Seki et al., “Modifications in the Biophysical Properties of Connexin43 Channels by a Peptide of the Cytoplasmic Loop Region,” Circ. Res. 95(4):e22-e28 (2004); Seki et al., “Loss of Electrical Communication, but Not Plaque Formation, After Mutations in the Cytoplasmic Loop of Connexin43,” Heart Rhythm. 1(2):227-233 (2004), which are hereby incorporated by reference in their entirety). M257 (a mutant of Cx43 truncated at amino acid 257 (Morley et al., “Intramolecular Interactions Mediate pH Regulation of Connexin43 Channels,” Biophys. J. 70(3):1294-1302 (1996), which is hereby incorporated by reference in its entirety)) was transiently expressed in N2a cells also using an eGFP-containing IRES plasmid. Cells were placed on the stage of an inverted microscope equipped for epifluorescence (Nikon Diaphoto200, Filter: 520 to 560 nm). Junctional current (I) was recorded from eGFP-positive cell pairs in a dual-whole-cell voltage clamp configuration (holding potentials: −40 mV; transjuctional voltage, Vj, +[…]; step duration, 10-30 seconds). Patch pipettes were filled with a cesium-containing solution (Seki et al., “Modifications in the Biophysical Properties of Connexin43 Channels by a Peptide of the Cytoplasmic Loop Region,” Circ. Res. 95(4):e22-e28 (2004); Seki et al., “Loss of Electrical Communication, but Not Plaque Formation, After Mutations in the Cytoplasmic Loop of Connexin43,” Heart Rhythm. 1(2):227-233 (2004), which are hereby incorporated by reference in their entirety). For the low pH experiments, HEPES was replaced by MES (10 mM). Pipette resistance was 4.0-6.0MΩ. Synthetic peptides were diluted in the pipette solution to a final concentration of 0.1 mM. During recording, cells were kept at room temperature in a cesium-containing solution (Seki et al., “Modifications in the Biophysical Properties of Connexin43 Channels by a Peptide of the Cytoplasmic Loop Region,” Circ. Res. 95(4):e22-e28 (2004); Seki et al., “Loss of Electrical Communication, but Not Plaque Formation, After Mutations in the Cytoplasmic Loop of Connexin43,” Heart Rhythm. 1(2):227-233 (2004), which are hereby incorporated by reference in their entirety). For some experiments, octanol (2.0 mM) was superfused during recording. Data acquisition and recording, and criteria for single channel detection were as reported in Seki et al., “Modifications in the Biophysical Properties of Connexin43 Channels by a Peptide of the Cytoplasmic Loop Region,” Circ. Res. 95(4):e22-e28 (2004) and Seki et al., “Loss of Electrical Communication, but Not Plaque Formation, After Mutations in the Cytoplasmic Loop of Connexin43,” Heart Rhythm. 1(2):227-233 (2004), which are hereby incorporated by reference in their entirety.
Compounds were tested for their ability to interfere with octanol-induced uncoupling. Compounds are tested for their ability to interfere with acidification induces uncoupling.
Experiments were modeled after those described in Shibayama et al (2006). Junctional conductance between Cx43-expressing N2a cell pairs was assessed using conventional dual patch clamp. Peptides were diluted in the patch pipette solution and the cells will be exposed either to octanol or to a low intracellular pH. Control experiments were carried out in the absence of the compound. The results are shown in FIGS. 3A-E, which are graphs of the time course of octanol-induced changes in coupling recorded from Cx43-expressing N2a cells. FIGS. 3A-E relate to peptides 2517, 2518, 2529, 2520 and 2624 respectively. […]

Ac-Arg-Arg-Asn-Tyr-Val-Pro-Arg-Arg-Asn-Tyr-NH2 (Ac-RRNYVPRRNY-NH2) [Compound 2512]
SPR respons ([1]; peptide 25 uM): 14.8 arbitrary units | SPR respons ([1]; peptide 100 uM): 50.7 arbitrary units | SPR respons ([1]; peptide 250 uM): 117.2 arbitrary units | SPR respons ([1]; peptide 500 uM): 227.3 arbitrary units | SPR respons ([1]; peptide 1 mM): 394.7 arbitrary units

Ac-Arg-Arg-Asn-Tyr-Gly-Gly-Gly-Arg-Arg-Asn-Tyr-NH2 (Ac-RRNYGGGRRNY-NH2) [Compound 2509]
SPR respons ([1]; peptide 25 uM): 21.5 arbitrary units | SPR respons ([1]; peptide 100 uM): 62.5 arbitrary units | SPR respons ([1]; peptide 250 uM): 148.5 arbitrary units | SPR respons ([1]; peptide 500 uM): 280.8 arbitrary units | SPR respons ([1]; peptide 1 mM): 478.9 arbitrary units

Ac-Tyr-Asn-Arg-Arg-Gly-Gly-Gly-Ser-Ala-Val-Pro-Phe-Tyr-Ser-His-Ser-Tyr-Asn-Arg-Arg-NH2 (Ac-YNRRGGGSAVPFYSHSYNRR-NH2) [Compound 2496]
SPR respons ([1]; peptide 25 uM): 67.7 arbitrary units | SPR respons ([1]; peptide 100 uM): 155.9 arbitrary units | SPR respons ([1]; peptide 250 uM): 358.1 arbitrary units | SPR respons ([1]; peptide 500 uM): 738.6 arbitrary units | SPR respons ([1]; peptide 1 mM): 1402 arbitrary units

Ac-Arg-Arg-Asn-Tyr-Gly-Gly-Gly-Ser-Ala-Val-Pro-Phe-Tyr-Ser-His-Ser-Arg-Arg-Asn-Tyr-Gly-Gly-Gly-Ser-Ala-Val-Pro-Phe-Tyr-Ser-His-Ser-Arg-Arg-Asn-Tyr-NH2 (Ac-RRNYGGGSAVPFYSHSRRNYGGGSAVPFYSHSRRNY-NH2) [Compound 2371]
Ability to re-open gap junctions closed by the uncoupler (revert uncoupled cells to coupled) [2]: able to revert uncoupled cells to couple cells; also recorded: re-open gap junctions that were initially closed by the uncoupler | Effect on octanol-induced uncoupling [2]: prevented octanol-induced uncoupling | Average junctional conductance (Gj) as a function of time after onset of octanol [2]: decreased at first and then increased | Decrease in Gj three minutes after onset of octanol [2]: no or only a minor decrease in Gj | Cell pairs that remained coupled / uncoupled following onset of octanol superfusion [2]: uncoupled and then recoupled

Ac-Arg-Arg-Asn-Tyr-NH2 (Ac-RRNY-NH2) [Compound 2498]
SPR respons ([1]; peptide 500 uM): 50.9 arbitrary units | SPR data normalised on Mw ([1]; peptide 500 uM): 7.9 | SPR respons ([1]; peptide 1 mM): 91 arbitrary units | SPR data normalised on Mw ([1]; peptide 1 mM): 14.0

Ac-Arg-Arg-Asn-Tyr-Gly-Gly-Gly-Ser-Ala-Val-Pro-Phe-Tyr-Ser-His-Ser-Arg-Arg-Asn-Tyr-Gly-Gly-Gly-Ser-Ala-Val-Pro-Phe-Tyr-Ser-His-Ser-Arg-Arg-Asn-Tyr-Gly-Gly-Gly-Ser-Ala-Val-Pro-Phe-Tyr-Ser-His-Ser-Arg-Arg-Asn-Tyr-NH2 (Ac-RRNYGGGSAVPFYSHSRRNYGGGSAVPFYSHSRRNYGGGSAVPFYSHSRRNY-NH2) [Compound 2372]
Ability to re-open gap junctions closed by the uncoupler (revert uncoupled cells to coupled) [2]: able to revert uncoupled cells to couple cells; also recorded: re-open gap junctions that were initially closed by the uncoupler | Effect on octanol-induced uncoupling [2]: prevented octanol-induced uncoupling | Average junctional conductance (Gj) as a function of time after onset of octanol [2]: a slight decrease in Gj was apparent; also recorded: decreased at first and then increased | Decrease in Gj three minutes after onset of octanol [2]: no or only a minor decrease in Gj | Cell pairs that remained coupled / uncoupled following onset of octanol superfusion [2]: none of the cell pairs exposed to 2372 uncoupled

Ac-Arg-Arg-Asn-Tyr-Ser-His-Ser-Arg-Arg-Asn-Tyr-NH2 (Ac-RRNYSHSRRNY-NH2) [Compound 2507]
SPR respons ([1]; peptide 25 uM): 42.3 arbitrary units | SPR respons ([1]; peptide 100 uM): 113.5 arbitrary units | SPR respons ([1]; peptide 250 uM): 254.2 arbitrary units | SPR respons ([1]; peptide 500 uM): 438.5 arbitrary units | SPR respons ([1]; peptide 1 mM): 703.2 arbitrary units

Ac-Arg-Arg-Asn-Tyr-Gly-Gly-Ser-Ala-Val-Pro-Phe-Tyr-Ser-His-Arg-Arg-Asn-Tyr-NH2 (Ac-RRNYGGSAVPFYSHRRNY-NH2) [Compound 2510]
SPR respons ([1]; peptide 25 uM): 40.3 arbitrary units | SPR respons ([1]; peptide 100 uM): 176.2 arbitrary units | SPR respons ([1]; peptide 250 uM): 331.5 arbitrary units | SPR respons ([1]; peptide 500 uM): 643.3 arbitrary units | SPR respons ([1]; peptide 1 mM): 1188 arbitrary units

Ac-Tyr-Asn-Arg-Arg-NH2 (Ac-YNRR-NH2) [Compound 2499]
SPR respons ([1]; peptide 1 mM): 69.4 arbitrary units | SPR data normalised on Mw ([1]; peptide 1 mM): 10.7

Ac-Arg-Arg-Asn-Tyr-Gly-Gly-Gly-Ser-Ala-Val-Pro-Phe-Tyr-Arg-Arg-Asn-Tyr-NH2 (Ac-RRNYGGGSAVPFYRRNY-NH2) [Compound 2508]
SPR respons ([1]; peptide 25 uM): 31.1 arbitrary units | SPR respons ([1]; peptide 100 uM): 121.9 arbitrary units | SPR respons ([1]; peptide 250 uM): 284.6 arbitrary units | SPR respons ([1]; peptide 500 uM): 546.8 arbitrary units | SPR respons ([1]; peptide 1 mM): 1024.5 arbitrary units

Ac-Arg-Arg-Asn-Tyr-Ser-Ala-Val-Pro-Phe-Tyr-Ser-His-Ser-Arg-Arg-Asn-Tyr-NH2 (Ac-RRNYSAVPFYSHSRRNY-NH2) [Compound 2506]
SPR respons ([1]; peptide 25 uM): 51.7 arbitrary units | SPR respons ([1]; peptide 100 uM): 117.2 arbitrary units | SPR respons ([1]; peptide 250 uM): 327 arbitrary units | SPR respons ([1]; peptide 500 uM): 561.8 arbitrary units | SPR respons ([1]; peptide 1 mM): 1172.8 arbitrary units

Ac-Arg-Arg-Asn-Tyr-Ala-Val-Pro-Phe-Arg-Arg-Asn-Tyr-NH2 (Ac-RRNYAVPFRRNY-NH2) [Compound 2511]
SPR respons ([1]; peptide 25 uM): 16.2 arbitrary units | SPR respons ([1]; peptide 100 uM): 90.5 arbitrary units | SPR respons ([1]; peptide 250 uM): 214.2 arbitrary units | SPR respons ([1]; peptide 500 uM): 389.6 arbitrary units | SPR respons ([1]; peptide 1 mM): 691.5 arbitrary units
